Measurements published in US20160068605A1 (Janssen / Centocor, published 2016).
Each block holds one binder with its values, some of them ahead of it.

Legend:
[1] = molecular target: T1, human CD123 SP1 ECD displayed on pDisplay-transfected cells (human, UniProt P26951 20-305); experiment: MSD-CAT on pDisplay cells
T1 construct: ECD anchored on the surface of stably transfected HEK293 cells by the PDGFR transmembrane domain; also called hCD123 SP1 cells; hCD123 cells
T1 sequence: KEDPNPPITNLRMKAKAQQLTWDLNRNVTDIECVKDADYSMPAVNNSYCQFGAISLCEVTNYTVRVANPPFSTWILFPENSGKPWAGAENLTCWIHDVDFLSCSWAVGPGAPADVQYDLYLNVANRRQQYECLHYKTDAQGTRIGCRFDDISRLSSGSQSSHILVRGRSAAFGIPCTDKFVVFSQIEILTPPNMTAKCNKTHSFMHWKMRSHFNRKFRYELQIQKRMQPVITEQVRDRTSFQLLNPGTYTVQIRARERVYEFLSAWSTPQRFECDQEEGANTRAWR
Protocol: (§1) The MSD-CAT was developed in-house as a label-free method to determine affinity using intact cells in a high throughput format. […] Cell lines used were human pDisplay CD123SP1 and pDisplay CD123SP2. […] These samples were prepared in DMEM Glutamax medium containing 0.05% Azide, 1% BSA, 3 mM EDTA. […] After equilibration the plate was centrifuged for 5 minutes ˜1000 rpm and free anti-CD3 detected on the supernatant. […] The assay buffer was removed without washing and 50 uL/well of 0.7 ug/mL of biotinylated antigen in assay buffer were added to MSD plates and incubated overnight (˜16 hours at 4° C.).

[2] = molecular target: T2, human CD123 SP2 ECD displayed on pDisplay-transfected cells (human, UniProt P26951 101-305); experiment: MSD-CAT on pDisplay cells
T2 construct: ECD anchored on the surface of stably transfected HEK293 cells; also called hCD123 SP2 cells; pDisplay CD123SP2
T2 sequence: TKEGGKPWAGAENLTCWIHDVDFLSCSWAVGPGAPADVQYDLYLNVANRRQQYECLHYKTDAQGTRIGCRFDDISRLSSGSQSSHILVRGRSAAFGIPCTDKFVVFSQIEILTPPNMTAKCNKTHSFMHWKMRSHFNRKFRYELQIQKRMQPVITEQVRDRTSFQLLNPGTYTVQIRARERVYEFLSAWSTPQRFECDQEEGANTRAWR
Protocol: as §1

[3] = molecular target: T3, Recombinant human CD123 SP1 ECD-His tag protein (human, UniProt P26951 20-305); experiment: SPR Biacore T200, captured antibody
T3 construct: bought from R&D Systems (#301-R3/CF); biotinylated for some assays; also called rhCD123 SP1; huCD123 ECD SP1
T3 sequence: T1 sequence
Protocol: (§2) Kinetic studies were performed at 25° C. using a Biacore T200 (Biacore, Inc., now part of GE Healthcare). […] The carboxymethyl groups of dextran were activated with N-Ethyl-N′-(3-Dimethylaminopropyl)carbodiimide (EDC) and N-hydroxysuccinimide (NHS). The anti-Fc antibody was coupled at pH 4.5 in 10 mM sodium acetate. Any remaining reactive sites on the surface were blocked by reaction with ethanolamine. […] 40-70 RU of antibody were captured. […] Association data was collected for 2 min followed by 10 min of dissociation. The surface was regenerated with 30 μL of 100 mM H3PO4 100 μL/min, followed by 50 mM NaOH. The samples for kinetic analysis were prepared in PBS-based buffer (D-PBS containing 3 mM EDTA and 0.005% surfactant P20). Data reported is the difference in SPR signal between the flow cell containing the captured antibody and a reference cell without captured antibody. Additional instrumental contributions to the signal were removed by subtraction of the data from the blank injection from the reference-subtracted signal. Data were analyzed by fitting association and dissociation phases at all concentrations (global fit) with a 1:1 binding model using the BIAevaluation software (BIAcore, Inc.).

[4] = molecular target: T4, Recombinant human CD123 SP2 ECD protein (human, UniProt P26951 101-303); experiment: SPR Biacore T200, captured antibody
T4 construct: also called rhCD123 SP2; CD123 ECD SP2
T4 sequence: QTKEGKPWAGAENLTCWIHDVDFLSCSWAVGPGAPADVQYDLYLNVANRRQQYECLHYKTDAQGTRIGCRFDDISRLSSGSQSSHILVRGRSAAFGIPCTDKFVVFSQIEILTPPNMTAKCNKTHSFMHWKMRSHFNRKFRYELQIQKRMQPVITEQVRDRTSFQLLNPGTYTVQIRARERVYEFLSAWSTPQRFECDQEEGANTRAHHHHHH
Protocol: as §2

[5] = molecular target: T5, cell-surface CD3 epsilon on primary cynomolgus T cells (cynomolgus monkey, UniProt Q95LI5 22-198); experiment: flow cytometry competition with labeled CD3B146 on T cells
T5 construct: whole, on cells; also called cynomolgus CD3e; Cyno T-cells
T5 sequence (Q95LI5 22-198): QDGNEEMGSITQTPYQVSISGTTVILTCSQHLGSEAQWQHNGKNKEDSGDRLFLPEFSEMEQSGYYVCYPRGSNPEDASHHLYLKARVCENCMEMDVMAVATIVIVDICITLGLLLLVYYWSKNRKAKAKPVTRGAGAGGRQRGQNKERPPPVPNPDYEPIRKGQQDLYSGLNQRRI
From the text: (§3) The format involved competition binding using a fixed concentration of labeled anti-CD3 mAb of known affinity and increasing concentrations of unlabeled test Abs (Ashkenazi A et al. PNAS: 88:10535, 1991.).

[6] = molecular target: T6, cell-surface CD3 epsilon on primary human T cells (human, UniProt P07766 23-207); experiment: as above
T6 construct: whole, on cells; part of the CD3/TCR complex on the cells
T6 sequence (P07766 23-207): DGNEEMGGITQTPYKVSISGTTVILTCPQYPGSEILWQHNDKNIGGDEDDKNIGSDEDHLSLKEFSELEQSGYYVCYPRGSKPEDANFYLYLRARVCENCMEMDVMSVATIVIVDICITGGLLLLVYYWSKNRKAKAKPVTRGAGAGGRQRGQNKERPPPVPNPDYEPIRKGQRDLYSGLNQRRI
From the text: as §3

[7] = molecular target: T6, cell-surface CD3 epsilon on primary …; experiment: competition flow cytometry on primary human T cells (Human Donor 10357); competitor displaced: Alexa Fluor 488-labelled CD3B146
From the text: as §3

[8] = molecular target: T3, Recombinant human CD123 SP1 ECD-His tag …; experiment: SPR ProteOn, captured mAb
[9] = molecular target: T4, Recombinant human CD123 SP2 ECD protein; experiment: SPR ProteOn, captured mAb
[10] = molecular target: T3, Recombinant human CD123 SP1 ECD-His tag …; experiment: SPR Biacore 3000, captured mAb
Protocol: (§4) Kinetic studies were performed at 25° C. using a Biacore 3000 (BIAcore, Inc., now part of GE Healthcare). […] Sheep anti-Human Fd specific antibody (The binding site Prod # PC075) was covalently attached to two flow cells (normally 3 and 4) of the carboxymethyl dextran coated gold surfaces (CM-5 Chip, Biacore). The carboxymethyl groups of dextran were activated with N-Ethyl-N′-(3-Dimethylaminopropyl)carbodiimide (EDC) and N-hydroxysuccinimide (NHS). The antibodies were coupled at pH 4.5 in 10 mM sodium acetate. Any remaining reactive sites on the surface were blocked by reaction with ethanolamine. […] Association data was collected for 2 min followed by 10 min of dissociation. The surface was regenerated with 30 μL of 100 mM H3PO4 100 μL/min. All samples were prepared in D-PBS containing 3 mM EDTA and 0.005% surfactant P20. Data reported is the difference in SPR signal between the flow cell containing the captured antibody or Fab and a reference cell without captured antibody or Fab. Additional instrumental contributions to the signal were removed by subtraction of the data from the blank injection from the reference-subtracted signal. Data were performed in triplicate and analyzed by fitting association and dissociation phases at all concentrations (global fit) with a 1:1 binding model using the BIAevaluation software (BIAcore, Inc.). […] Data presented is an average.

[11] = molecular target: T4, Recombinant human CD123 SP2 ECD protein; experiment: SPR Biacore 3000, captured mAb
Protocol: as §4

Kd [1]: 1.76 nM
Kd [2]: 2.21 nM
Kd [3]: 14.3 nM
koff [3]: 0.0048 s⁻¹
kon [3]: 337000 M⁻¹ s⁻¹
Kd [4]: 1.63 nM
koff [4]: 0.0052 s⁻¹
kon [4]: 3.19e+06 M⁻¹ s⁻¹
Kd [5]: 9.5 nM
Kd [6]: 9.6 nM
IC50 (read off the curve) [7]: ~20 nM
B1: bispecific antibody Ab 8747 (bispecific antibody, human IgG4 S228P, kappa, lambda, F234A L235A)
heavy 1: EVQLVESGGGLVQPGGSLRLSCAASGFTFNTYAMNWVRQAPGKGLEWVARIRSKYNNYATYYAASVKGRFTISRDDSKNSLYLQMNSLKTEDTAVYYCARHGNFGNSYVSWFAYWGQGTLVTVSSASTKGPSVFPLAPCSRSTSESTAALGCLVKDYFPEPVTVSWNSGALTSGVHTFPAVLQSSGLYSLSSVVTVPSSSLGTKTYTCNVDHKPSNTKVDKRVESKYGPPCPPCPAPEAAGGPSVFLFPPKPKDTLMISRTPEVTCVVVDVSQEDPEVQFNWYVDGVEVHNAKTKPREEQFNSTYRVVSVLTVLHQDWLNGKEYKCKVSNKGLPSSIEKTISKAKGQPREPQVYTLPPSQEEMTKNQVSLTCLVKGFYPSDIAVEWESNGQPENNYKTTPPVLDSDGSFLLYSKLTVDKSRWQEGNVFSCSVMHEALHNHYTQKSLSLSLGK
light 1: QTVVTQEPSLTVSPGGTVTLTCRSSTGAVTTSNYANWVQQKPGQAPRGLIGGTNKRAPGTPARFSGSLLGGKAALTLSGVQPEDEAEYYCALWYSNLWVFGGGTKLTVLGQPKAAPSVTLFPPSSEELQANKATLVCLISDFYPGAVTVAWKADSSPVKAGVETTTPSKQSNNKYAASSYLSLTPEQWKSHRSYSCQVTHEGSTVEKTVAPTECS
heavy 2: not shown
light 2: not shown

Kd [8]: 4.5 nM
koff [8]: 0.00477 s⁻¹
kon [8]: 1.06e+06 M⁻¹ s⁻¹
Kd [9]: 1.85 nM
koff [9]: 0.00335 s⁻¹
kon [9]: 1.81e+06 M⁻¹ s⁻¹
Kd [2]: 0.036 nM
Kd [10]: 7.7 nM
koff [10]: 0.00372 s⁻¹
kon [10]: 481000 M⁻¹ s⁻¹
Kd [11]: 1.4 nM
B2: I3RB2 (antibody, IgG1, V domains shown)
VH: EVQLLESGGGLVQPGGSLRLSCAASGFTFSGYWMHWVRQAPGKGLEWVSAIRSDGSSKYYADSVKGRFTISRDNSKNTLYLQMNSLRAEDTAVYYCAKDGVIEDTFDYWGQGTLVTVSS
VL: EIVLTQSPATLSLSPGERATLSCRASQSVSSYLAWYQQKPGQAPRLLIYDASNRATGIPARFSGSGSGTDFTLTISSLEPEDFAVYYCQQRSNWPLTFGQGTKVEIK
notes: IgG1; also called I3RB02; 13RB2
